Laboratory results reported in patent US20190389958A1 (MSM PROTEIN TECHNOLOGIES, published 2019).

Experiments:
human CXCR4 [1] = target: T1, human CXCR4 (human, UniProt P61073 1-352); assay: flow cytometry, IgG 10 µg/mL, CXCR4-expressing Ramos (RA1) cells
T1 construct: whole, on cells; also called hCXCR4; LESTR
Experimental: Binding of test IgGs to CXCR4-expressing human lymphoma cells (Ramos; RA1, ATCC® CRL-1596™) was measured by fluorescent flow cytometry-based assay. Tumor cell staining was conducted as follows: human Fcγ receptors of RA1 cells were saturated by incubation at 4° C. for 30 minutes in PBS containing 2% human serum and 0.5 mM EDTA. Cells were then incubated at 4° C. for one hour with test IgGs or a human isotypic IgG1 kappa control (Coger Sarl, Paris, France) (both antibody types at 10 μg/mL). The cells were washed with PBS and further incubated for one hour at 4° C. with a goat F(ab′)2 fragment anti-human IgG (H+L)-PE (Beckman Coulter). The cells were washed twice with PBS and fixed with 0.5% formaldehyde in PBS for analysis by flow cytometry. The data were acquired using an eleven-color flow cytometer (LSRII, BD Biosciences), and the analyses were performed with the FlowJo flow cytometry analysis software (Tree Star Inc., Ashland, Oreg.). The living cells were selected using the side scatter (SSC) and the forward scatter (FSC); 10,000 events were acquired for each analysis. MFI values were recorded using the PE channel.

human CXCR4 [2] = target: T1, human CXCR4; assay: cell-based or functional assay
human CXCR4 [3] = target: T1, human CXCR4; assay: cell-based or functional assay; remark: listed apart in the source
human CXCR4 [4] = target: T1, human CXCR4; assay: flow cytometry on Cf2-Th cells transfected with human CXCR4, IgG1 format
Experimental: A typical protocol for the fluorescent flow cytometry-based assay was as follows. Ten microliter of a purified test IgG solution or buffer as a control were added to 10 microliter of a suspension containing approximately 30,000 Cf2-Th cells transfected to express human CXCR4. After incubation on ice for 40 min, cells were washed with FACS buffer (phosphate-buffered saline (PBS), pH7.4; 2% fetal calf serum, 0.1% sodium azide) to remove unbound antibodies. Ten microliter of a solution of phycoerythrin (PE)-conjugated mouse anti-human Fc monoclonal antibody (1/20 dilution; catalog number 12-4998-82, eBioscience Inc., San Diego, Calif.) were then added to the cells, and, after a 30-min incubation on ice, cells were washed twice and then formalin-fixed (FIX buffer: PBS, pH7.4; 0.5% formaldehyde). Fixed samples were analysed by fluorescent flow cytometry using a Guava-PCA96 instrument (EMD Millipore Chemicals, Merck KGaA, Darmstadt, Germany).

T1 sequence (P61073 whole entry): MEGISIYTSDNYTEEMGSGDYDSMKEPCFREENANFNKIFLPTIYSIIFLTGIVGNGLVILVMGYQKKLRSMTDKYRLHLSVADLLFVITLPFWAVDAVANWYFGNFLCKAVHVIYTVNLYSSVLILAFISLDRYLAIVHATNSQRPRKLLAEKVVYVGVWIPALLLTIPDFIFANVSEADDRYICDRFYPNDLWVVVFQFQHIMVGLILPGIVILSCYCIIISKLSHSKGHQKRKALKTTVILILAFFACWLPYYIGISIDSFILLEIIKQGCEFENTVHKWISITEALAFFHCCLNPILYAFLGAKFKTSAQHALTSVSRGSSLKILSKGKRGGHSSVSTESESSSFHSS

B1: V62.1-R108H-m43-m38 (antibody, human IgG1, V domains shown)
VH: EVQLLESGGGLVQPGGSLRLSCAASGFTFSSYAMSWVRQAPGKGLEWVSAISGSGGGSTRYADSVKGRFTISRDNSKNTLYLQMNSLRAEDTAVYYCARQGKTRVYGYHWHGYGSTHALDYWGQGTLVTVSS
VL: EIVLTQSPGTLSLSPGERATLSCRASQSVSSSYLAWYQQKPGQAPRLLIYGASSRATGIPDRFSGSGSGTDFTLTISRLEPEDFAVYYCQQWSSDSVTFGQGTKVEIKR
notes: Tested as an IgG (human IgG1 format); also called V62.1-H-m43-m38; IgG1 62.1-R108H-m43-m38
**Q.** What does the source list for B1?
**A.** MFI (human CXCR4 [1]): 488; IC50 (nM), inhibition of SDF-1alpha-induced calcium flux (human CXCR4 [2]): 3.8 nM; % Inhibition of SDF-1alpha-induced chemotaxis of U937 cells (IgG at 100 nM) (human CXCR4 [3]): 77%; EC50 (human CXCR4 [4]): < 10 nM
